Data reported in patent publication US8383117.

Assays:
[1] = target: T1, CD44E (CD44 isoform 3, epithelial form) (human, UniProt P16070 21-742); assay: flow cytometry, MCF-7 cells (weakly positive line)
T1 construct: also called CD44v8-10; VB1-008 Ag

[2] = target: T1, CD44E (CD44 isoform 3, epithelial form); assay: flow cytometry, MDA-MB-231 cells (moderately positive line)
[3] = target: T1, CD44E (CD44 isoform 3, epithelial form); assay: flow cytometry, PANC-1 cells (called a negative line in the immunoprecipitation)
[4] = target: T1, CD44E (CD44 isoform 3, epithelial form); assay: flow cytometry, DAUDI cells (called antigen-negative)
[5] = target: T1, CD44E (CD44 isoform 3, epithelial form); assay: flow cytometry, A-375 cells kept on ice for 120 min; over human IgG (4B5)
[6] = target: T1, CD44E (CD44 isoform 3, epithelial form); assay: flow cytometry, A-375 cells, surface-bound antibody after 60 min at 37 °C
[7] = target: T1, CD44E (CD44 isoform 3, epithelial form); assay: flow cytometry, PANC-1 cells (no antigen purified from this line)
[8] = target: T1, CD44E (CD44 isoform 3, epithelial form); assay: flow cytometry, MCF-7 cells; control 4B5-IgG
Excerpt: (§1) Appropriate isotype-matched controls were also used in the study.

[9] = target: T1, CD44E (CD44 isoform 3, epithelial form); assay: flow cytometry, DAUDI cells (called antigen-negative); control 4B5-IgG
[10] = target: T1, CD44E (CD44 isoform 3, epithelial form); assay: flow cytometry, MB231 cells; control 4B5-IgG
Excerpt: as §1

[11] = target: T1, CD44E (CD44 isoform 3, epithelial form); assay: flow cytometry saturation curve on A-375 tumor cells, Lineweaver-Burk; antigen on the cells identified later in the filing as CD44E
Description: Values and graphical analysis were generated using Sigma Plot (Jandel Scientific, San Rafael, Calif.). The inverse of the determined median fluorescence was plotted as a function of the inverse of antibody concentration to determine KD by the Lineweaver-Burk method. A straight line was generated and the KD was calculated from the slope of the curve.

[12] = target: T1, CD44E (CD44 isoform 3, epithelial form); assay: flow cytometry, MB435S cells
Excerpt: as §1

[13] = target: T1, CD44E (CD44 isoform 3, epithelial form); assay: flow cytometry, RAMOS cells; control 4B5-IgG
Excerpt: as §1

[14] = target: T1, CD44E (CD44 isoform 3, epithelial form); assay: flow cytometry, A-375 cells
[15] = target: T1, CD44E (CD44 isoform 3, epithelial form); assay: flow cytometry, A-375 cells (very positive line)
[16] = target: T1, CD44E (CD44 isoform 3, epithelial form); assay: flow cytometry, MB435S cells; control 4B5-IgG
Excerpt: as §1

[17] = target: T1, CD44E (CD44 isoform 3, epithelial form); assay: flow cytometry, MB231 cells
Excerpt: as §1

[18] = target: T1, CD44E (CD44 isoform 3, epithelial form); assay: flow cytometry, DAUDI cells (called antigen-negative); remark: listed apart in the source
[19] = target: T1, CD44E (CD44 isoform 3, epithelial form); assay: flow cytometry, PANC-1 cells; control 4B5-IgG
Excerpt: as §1

[20] = target: T1, CD44E (CD44 isoform 3, epithelial form); assay: flow cytometry, MCF-7 cells
Excerpt: as §1

[21] = target: T1, CD44E (CD44 isoform 3, epithelial form); assay: flow cytometry, A-375 cells, surface-bound antibody after 120 min at 37 °C
[22] = target: T1, CD44E (CD44 isoform 3, epithelial form); assay: flow cytometry, RAMOS cells (called a negative line)
[23] = target: T1, CD44E (CD44 isoform 3, epithelial form); assay: flow cytometry, RAMOS cells
[24] = target: T1, CD44E (CD44 isoform 3, epithelial form); assay: flow cytometry, A-375 cells; control 4B5-IgG
Excerpt: as §1

[25] = target: T1, CD44E (CD44 isoform 3, epithelial form); assay: flow cytometry, MDA-MB-435S cells (very positive line)

T1 sequence (P16070 other isoform, or with tags, fused parts or gaps limits assumed): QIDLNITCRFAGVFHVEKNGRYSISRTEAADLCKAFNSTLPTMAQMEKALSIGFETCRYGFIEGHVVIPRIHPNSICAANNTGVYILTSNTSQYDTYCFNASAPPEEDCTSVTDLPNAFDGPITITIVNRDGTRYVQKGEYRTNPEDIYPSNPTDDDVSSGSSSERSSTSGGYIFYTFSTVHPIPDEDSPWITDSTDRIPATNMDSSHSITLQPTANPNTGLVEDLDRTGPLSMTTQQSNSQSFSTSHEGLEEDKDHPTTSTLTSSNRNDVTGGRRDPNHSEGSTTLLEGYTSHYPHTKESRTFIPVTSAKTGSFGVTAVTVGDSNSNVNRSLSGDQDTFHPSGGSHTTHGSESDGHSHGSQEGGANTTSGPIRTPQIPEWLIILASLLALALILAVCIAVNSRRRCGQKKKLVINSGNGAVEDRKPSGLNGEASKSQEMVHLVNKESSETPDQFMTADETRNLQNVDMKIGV

- increase in median fluorescence over isotype-matched control (MF) [1]: 4.67 fold
- increase in median fluorescence over isotype-matched control (MF) [2]: 14.2 fold
- increase in median fluorescence over isotype-matched control (MF) [3]: 8.3 fold
- Flow results [4]: 1 fold
- Fold-increase in MF [5]: 31.7 fold
- Fold-increase in MF [6]: 13.5 fold
- Flow results [7]: 8.95 fold
- fold-increase in median fluorescence over isotype-matched control [8]: 4.63 fold
- fold-increase in median fluorescence over isotype-matched control [9]: 1 fold
- fold-increase in median fluorescence over isotype-matched control [10]: 14.2 fold
- Kd [11]: 58.8 nM
- Flow results [12]: 15.8 fold
- fold-increase in median fluorescence over isotype-matched control [13]: 1.1 fold
- Flow results [14]: 11.1 fold
- increase in median fluorescence over isotype-matched control (MF) [15]: 13.3 fold
- fold-increase in median fluorescence over isotype-matched control [16]: 15.8 fold
- Flow results [17]: 14.2 fold
- increase in median fluorescence over isotype-matched control (MF) [18]: 1.1 fold
- fold-increase in median fluorescence over isotype-matched control [19]: 8.3 fold
- Flow results [20]: 4.63 fold
- Fold-increase in MF [21]: 12 fold
- increase in median fluorescence over isotype-matched control (MF) [22]: 1.3 fold
- Flow results [23]: 1.1 fold
- fold-increase in median fluorescence over isotype-matched control [24]: 13.3 fold
- increase in median fluorescence over isotype-matched control (MF) [25]: 15.8 fold
B1: VB1-008 monoclonal antibody (antibody, V domains shown)
VH: QVQLQELGPRLVRPSQTLILTCTVSGGSVSGDEYYWSWLRQTPGKGLEWIGYMSYRGSSYYSPSLQSRVTIAVDRSKNEFSLKLTSVTAADAAVYFCARKYCGGDCRSGFDIWGRGTMVTVAS
VL: YELTQPPSVSVSPGQKAFITCSGDNLGNKYVCWYQQKPGQSPVLVIYEDTKRPSGIPERFSASNSGNTATLTISGTQPIDEADYYCQAWDSRTEIFGTGTKVTVLS
notes: also called 17P2/C12
